Source: publication PMC12719032, “Structural and biophysical insights into RomR, MglB, and MglC interactions involved in regulating cell polarity in Myxococcus xanthus” (The Journal of Biological Chemistry, 2025)

B1: MglC (mutual gliding-motility protein C) (natural protein, M. xanthus, UniProt Q1D0B6 1-120, looked up)
chain: MSFRTHLESVVNQVEGALACSVMGFDGISVDTFQKDESAELDLNGAWVEYANLLTQLRNAAETLKTGTVSEVSVNSEKVLTVMRLVSPDYFLVLALHADGNFGKGRYVLRVTAPKVRAEL
notes: MglC of Myxococcus xanthus (DSM no. 16526, type strain), Uniprot ID Q1D0B6; Homodimer by ASEC and SEC-SAXS; source: E. coli Rosetta (DE3), purified (Ni-NTA, SEC)
B2: RomR^371-420 (C-terminal helix of RomR, residues 371-420) (domain or fragment, M. xanthus, UniProt Q1D3Z1 371-420, looked up)
chain: DGGEALLREALSKASREVIEKIAWEVVPQLAETIIREELERLIKDRETQH
notes: synthetic gene from Invitrogen, cloned in pET-Duet-A with a TEV site; no tag cleavage is described; Trimer by SEC-SAXS; also called RomR C-terminal helix; helical domain of RomR; source: E. coli Rosetta (DE3), purified (Ni-NTA, SEC); not shown: His tag, N-terminal, kept

Tests used:
[1] = biological target: RomR^327-420 (C-terminal region of RomR, residues 327-420) (M. xanthus); assay: ITC; MicroCal Auto-iTC200; 50 μM RomR^327-420/RomR^371-420 in the cell titrated with 500 μM MglC; 30 injections; one-site model; triplicate
[2] = biological target: B2; assay: as above; settings: both partners purified
[3] = biological target: RomR^327-420 (C-terminal region of RomR, residues 327-420) (M. xanthus); assay: BLI; Octet RED 96; RomR^327-420/RomR^371-420 immobilised on AR2G sensors by EDC/NHS; MglC in solution; 20 mM HEPES pH 8.0, 150 mM NaCl, 10% glycerol; 1:1 binding model
[4] = biological target: the molecule itself; assay: SEC-SAXS; BM29, ESRF; Advance BioSEC 300 column; 20 mM Hepes pH 8.0, 150 mM NaCl, 10% glycerol; Mw from Porod volume, fits of models to the scattering data
[5] = biological target: T1, MglB-MglC complex (preformed) (M. xanthus, UniProt Q1DB03 1-159; Q1D0B6 1-120); assay: ITC; MglB and MglC premixed 2:1; 25 μM of the complex in the cell titrated with 300 μM RomR^371-420; one-site model; triplicate; settings: both partners purified
T1 construct: MglB of Myxococcus xanthus, Uniprot ID Q1DB03; as m7; MglC of Myxococcus xanthus, Uniprot ID Q1D0B6; as m1; also called MglBC; source: purified proteins from E. coli Rosetta (DE3), MglB and MglC premixed in a 2:1 ratio; copies: 4 + 2
T1 sequence (looked up) 1: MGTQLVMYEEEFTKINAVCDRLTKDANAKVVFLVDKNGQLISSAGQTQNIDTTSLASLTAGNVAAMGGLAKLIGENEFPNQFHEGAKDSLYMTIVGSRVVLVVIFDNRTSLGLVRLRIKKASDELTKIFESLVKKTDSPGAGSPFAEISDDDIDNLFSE
T1 sequence (looked up) 2: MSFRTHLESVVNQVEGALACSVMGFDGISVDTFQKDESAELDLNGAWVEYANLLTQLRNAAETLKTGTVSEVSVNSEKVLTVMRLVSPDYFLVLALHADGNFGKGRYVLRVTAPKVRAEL

[6] = biological target: B1; assay: ITC; MicroCal Auto-iTC200; 50 μM RomR^327-420/RomR^371-420 in the cell titrated with 500 μM MglC; 30 injections; one-site model; triplicate; settings: both partners purified
[7] = biological target: B1; assay: BLI; Octet RED 96; RomR^327-420/RomR^371-420 immobilised on AR2G sensors by EDC/NHS; MglC in solution; 20 mM HEPES pH 8.0, 150 mM NaCl, 10% glycerol; 1:1 binding model; settings: both partners purified
[8] = biological target: T1, MglB-MglC complex (preformed); assay: BLI; Octet RED 96; RomR^371-420 immobilised on AR2G sensors by EDC/NHS; MglB-MglC complex in solution; 20 mM HEPES pH 8.0, 150 mM NaCl, 10% glycerol; 2:1 (heterogeneous ligand) model and steady state analysis; settings: both partners purified

B1
Kd [1]: 4.2 nM
stoichiometry N [1]: 0.67
dH [2]: -2.59 kcal/mol
stoichiometry N [2]: 0.65
Kd [3]: 5.5 nM
koff [3]: 0.000805 s⁻¹
kon [3]: 146000 M⁻¹ s⁻¹
stoichiometry N [4]: 2

B2
Kd [5]: ~150 nM
dH [5]: -6.07 kcal/mol
Kd [6]: 2.6 nM
stoichiometry N [4]: 3
Kd [7]: 2.8 nM
koff [7]: 0.000652 s⁻¹
kon [7]: 228000 M⁻¹ s⁻¹
Kd [8]: 280 nM
